Measured values published in patent US20240132626A1 (Eli Lilly, published 2024).

B1: HER-2 X EGFR X cMet TsAb_C_HL (other)
heavy 1: EVQLVESGGGLVQPGGSLRLSCAASGFTFTDYTMDWVRKAPGKGLEWVADVNPNSGGSIYNQEFKGRFTLSVDRSKNTLYLQMNSLRAEDTAVYYCARNLGPSFYFDYWGQGTLVTVSSASTKGPSVFPLAPSSKSTSGGTAALGCLVKDYFPEPVTVSWNSGALTSGVATGPAVLQSSGLYSLSSVVTVPSSSLGTQTYICNVNHKPSNTKVDKKVEPKSCDKTHTCPPCPAPEAAGGPSVFLFPPKPKDTLMISRTPEVTCVVVDVSHEDPEVKFNWYVDGVEVHNAKTKPREQYQSTYRVVSVLTVLHQDWLNGKEYKCKVSNKALPAPIEKTISKAKGQPREPQVSTLPPSREEMTKNQVSLMCLVYGFYPSDIAVEWESNGQPENNYKTTPPVLDSDGSFFLYSVLTVDKSRWQQGNVFSCSVMHEALHNHYTQKSLSLSPGKGGGGSGGGGSGGGGSGGGGSEVQLVESGGGLVQPGGSLRLSCAASGYTFTSYWLHWVRQAPGKGLEWVGMIDPSNSDTRFNPNFKDRFTISADTSKNTAYLQMNSLRAEDTAVYYCATYRSYVTPLDYWGRGTLVTVSSASTKGPSVFPLAPSSKSTSGGTAALGCLVADYFPEPVTVSWNSGALTSGVHTFPAVLQSSGLYSLSSVVTVPSSSLGTQTYICNVNHKPSNTKVDERVEPKSC
light 1: RIQMTQSPSSLSASVGDRVTITCKASQDVSIGVAWYQDKPGKAPKLLIYSASYRYTGVPSRFSGSGSGTDFTLTISSLQPEDFATYYCQQYYIYPYTFGQGTKVEIKGQPKAAPSVTLFPPSSEELQANKATLVCYISDFYPGAVTVAWKADSSPVKAGVETTTPSKQSNNKYAAWSYLSLTPEQWKSHRSYSCQVTHEGSTVEKTVAPTEC
heavy 2: QVQLVQSGAEVKKPGASVKVSCKASGYTFTSHWMHWVRYAPGQGLEWIGEFNPSNGRTNYNEKFKSKATMTVDTSTNTAYMELSSLRSEDTAVYYCASRDYDYDGRYFDYWGQGTLVTVSSASTKGPSVFPLAPCSKSTSGGTAALGCLVKDYFPEPVTVSWNSGALTSGVHTFPAVLQSSGLYSLSSVVTVPSSSLGTQTYICNVNHKPSNTKVDKKVEPDSGDKTHTCPPCPAPEAAGGPSVFLFPPKPKDTLMISRTPEVTCVVVDVSHEDPEVKFNWYVDGVEVHNAKTKPREEQYQSTYRVVSVLTVLHQDWLNGKEYKCKVSNKALPAPIEKTISKAKGQPREPQVYTLPPSRGDMTKNQVQLTCLVKGFYPSDIAVEWESNGQPENNYKTTPPVLDSDGSFFLASKLTVDKSRWQQGNVFSCSVMHEALHNHYTQKSLSLSPGKGGGGSGGGGSGGGGSGGGGSDIQMTQSPSSLSASVGDRVTITCKSSQSLLYTSSQKNYLAWYQQKPGDAPKLLIYWASTRESGVPSRFSGSGSGTDFTLTISSLQPEDFATYYCQQYYAYPWTFGQGTKVEIKRTVAAPSVFIFPPSDKQLKSGTARVVCLLNNFYPREAKVQWKVDNALQSGNSQESVTEQDSKDSTYSLISTLTLSKADYEKHKVYACEVTHQGLSSPVTKSFNRGEC
light 2: DIQMTQSPSSLSASVGDRVTITCSASSSVTYMYWYQRKPGKAPKLLIYDTSNLASGVPSRFSGSGSGTDYTFTISSLQPEDIATYYCQQWSSHIFTFGQGTKVEIKRTVAAPSVFIFPPSKEQLKSGTASVVCLLNNFYPREAKVQWKVDNALQSGNSQESVTEQDSKDSTYSLSSTLTLSKADYEKHKVYACEVTHQGLSSPVTKSFNRGEC
notes: Trispecific IgG-Fab antibody with Fabs from pertuzumab, matuzumab and MetMAb; the anti-cMet Fab is dually tethered at the C-terminus of the heterodimeric Fc
B2: HER-2 X EGFR X cMet TsAb_N_H (other)
heavy 1: EVQLVESGGGLVQPGGSLRLSCAASGYTFTSYWLHWVRQAPGKGLEWVGMIDPSNSDTRFNPNFKDRFTISADTSKNTAYLQMNSLRAEDTAVYYCATYRSYVTPLDYWGRGTLVTVSSASTKGPSVFPLAPSSKSTSGGTAALGCLVADYFPEPVTVSWNSGALTSGVHTFPAVLQSSGLYSLSSVVTVPSSSLGTQTYICNVNHKPSNTKVDERVEPKSCGGGGSGGGGSGGGGSGGGGSGGGGSQVQLVQSGAEVKKPGASVKVSCKASGYTFTSHWMHWVRYAPGQGLEWIGEFNPSNGRTNYNEKFKSKATMTVDTSTNTAYMELSSLRSEDTAVYYCASRDYDYDGRYFDYWGQGTLVTVSSASTKGPSVFPLAPCSKSTSGGTAALGCLVKDYFPEPVTVSWNSGALTSGVHTFPAVLQSSGLYSLSSVVTVPSSSLGTQTYICNVNHKPSNTKVDKKVEPDSGDKTHTCPPCPAPEAAGGPSVFLFPPKPKDTLMISRTPEVTCVVVDVSHEDPEVKFNWYVDGVEVHNAKTKPREEQYQSTYRVVSVLTVLHQDWLNGKEYKCKVSNKALPAPIEKTISKAKGQPREPQVYTLPPSRGDMTKNQVQLTCLVKGFYPSDIAVEWESNGQPENNYKTTPPVLDSDGSFFLASKLTVDKSRWQQGNVFSCSVMHEALHNHYTQKSLSLSPG
light 1: B1 light 2
heavy 2: EVQLVESGGGLVQPGGSLRLSCAASGFTFTDYTMDWVRKAPGKGLEWVADVNPNSGGSIYNQEFKGRFTLSVDRSKNTLYLQMNSLRAEDTAVYYCARNLGPSFYFDYWGQGTLVTVSSASTKGPSVFPLAPSSKSTSGGTAALGCLVKDYFPEPVTVSWNSGALTSGVATGPAVLQSSGLYSLSSVVTVPSSSLGTQTYICNVNHKPSNTKVDKKVEPKSCDKTHTCPPCPAPEAAGGPSVFLFPPKPKDTLMISRTPEVTCVVVDVSHEDPEVKFNWYVDGVEVHNAKTKPREEQYQSTYRVVSVLTVLHQDWLNGKEYKCKVSNKALPAPIEKTISKAKGQPREPQVSTLPPSREEMTKNQVSLMCLVYGFYPSDIAVEWESNGQPENNYKTTPPVLDSDGSFFLYSVLTVDKSRWQQGNVFSCSVMHEALHNHYTQKSLSLSPG
light 2: B1 light 1
light 3: DIQMTQSPSSLSASVGDRVTITCKSSQSLLYTSSQKNYLAWYQQKPGDAPKLLIYWASTRESGVPSRFSGSGSGTDFTLTISSLQPEDFATYYCQQYYAYPWTFGQGTKVEIKRTVAAPSVFIFPPSDKQLKSGTARVVCLLNNFYPREAKVQWKVDNALQSGNSQESVTEQDSKDSTYSLISTLTLSKADYEKHKVYACEVTHQGLSSPVTKSFNRGEC
notes: Trispecific IgG-Fab antibody; the anti-cMet Fab is fused N-terminally through its heavy chain fragment
B3: HER-2 X EGFR X cMet TsAb_C_L (other)
heavy 1: B2 heavy 2
light 1: B1 light 1
chain: EVQLVESGGGLVQPGGSLRLSCAASGYTFTSYWLHWVRQAPGKGLEWVGMIDPSNSDTRFNPNFKDRFTISADTSKNTAYLQMNSLRAEDTAVYYCATYRSYVTPLDYWGRGTLVTVSSASTKGPSVFPLAPSSKSTSGGTAALGCLVADYFPEPVTVSWNSGALTSGVHTFPAVLQSSGLYSLSSVVTVPSSSLGTQTYICNVNHKPSNTKVDERVEPKSC
heavy 2: B1 heavy 2
light 2: B1 light 2
notes: Trispecific IgG-Fab antibody; the anti-cMet Fab is tethered through its light chain only at the C-terminus of HC2
B4: Matuzumab (antibody, V domains shown)
VH: QVQLVQSGAEVKKPGASVKVSCKASGYTFTSHWMHWVRQAPGQGLEWIGEFNPSNGRTNYNEKFKSKATMTVDTSTNTAYMELSSLRSEDTAVYYCASRDYDYDGRYFDYWGQGTLVTVSS
VL: DIQMTQSPSSLSASVGDRVTITCSASSSVTYMYWYQQKPGKAPKLLIYDTSNLASGVPSRFSGSGSGTDYTFTISSLQPEDIATYYCQQWSSHIFTFGQGTKVEIKG

target: T1, Soluble human HER-2 extracellular domain (ECD) protein (human, UniProt P04626 23-652); assay: SPR, captured via anti-human kappa, soluble ECD injected
T1 construct: extracellular domain; His-tagged

Row | Kd [nM] | koff [s⁻¹] | kon [M⁻¹ s⁻¹] | Binder
1 | 1.2 | 0.00027 | 230000 | B1
2 | 1.1 | 0.00026 | 230000 | B2
3 | 0.8 | 0.00039 | 520000 | B3

target: T2, Soluble human cMet extracellular domain (ECD) protein (human, UniProt P08581 25-932); assay: as above
T2 construct: extracellular domain; His-tagged
T2 sequence (P08581 25-932): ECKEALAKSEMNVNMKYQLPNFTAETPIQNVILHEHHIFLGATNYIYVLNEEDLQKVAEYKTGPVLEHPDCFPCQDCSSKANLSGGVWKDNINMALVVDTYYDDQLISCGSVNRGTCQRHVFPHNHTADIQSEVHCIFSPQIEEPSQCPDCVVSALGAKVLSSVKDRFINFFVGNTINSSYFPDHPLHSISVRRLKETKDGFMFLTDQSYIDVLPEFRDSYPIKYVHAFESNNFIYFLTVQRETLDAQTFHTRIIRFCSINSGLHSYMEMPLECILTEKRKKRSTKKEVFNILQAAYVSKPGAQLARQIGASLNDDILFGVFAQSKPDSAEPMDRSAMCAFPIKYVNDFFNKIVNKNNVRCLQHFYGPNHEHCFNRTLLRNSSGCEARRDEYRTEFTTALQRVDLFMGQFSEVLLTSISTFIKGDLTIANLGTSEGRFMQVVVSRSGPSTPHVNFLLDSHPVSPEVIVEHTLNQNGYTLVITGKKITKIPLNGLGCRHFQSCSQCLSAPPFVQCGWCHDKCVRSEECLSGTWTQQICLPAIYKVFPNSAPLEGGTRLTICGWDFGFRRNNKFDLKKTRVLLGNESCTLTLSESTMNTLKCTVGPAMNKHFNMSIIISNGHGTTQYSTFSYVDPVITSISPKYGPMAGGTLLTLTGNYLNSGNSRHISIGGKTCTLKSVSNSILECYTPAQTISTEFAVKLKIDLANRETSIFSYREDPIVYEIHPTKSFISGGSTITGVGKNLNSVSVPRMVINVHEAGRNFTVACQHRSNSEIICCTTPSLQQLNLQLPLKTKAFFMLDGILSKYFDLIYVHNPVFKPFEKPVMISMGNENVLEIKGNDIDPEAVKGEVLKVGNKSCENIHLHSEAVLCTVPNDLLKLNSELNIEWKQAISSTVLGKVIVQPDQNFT

Row | Kd [nM] | koff [s⁻¹] | kon [M⁻¹ s⁻¹] | Binder
4 | 74 | 0.00025 | 3400 | B1
5 | 0.31 | 0.00016 | 520000 | B2
6 | 0.69 | 0.00025 | 360000 | B3

target: T3, Soluble human EGFR ECD protein (human, UniProt P00533 25-645); assay: as above
T3 construct: extracellular domain; His-tagged

Row | Kd [nM] | koff [s⁻¹] | kon [M⁻¹ s⁻¹] | Binder
7 | 10 | 0.0085 | 850000 | B1
8 | 13 | 0.0085 | 680000 | B2
9 | 4.5 | 0.0086 | 1.9e+06 | B3
10 | 13 | 0.0083 | 650000 | B4
